How the values were obtained:
human 5T4 on cells [1] = molecular target: T1, human 5T4 on cells (human, UniProt Q13641 32-420); test: flow cytometry, CHO-K1 cells expressing human 5T4, labelled anti-human IgG secondary, MFI (mean)
T1 construct: also called TPBG; hu5T4
T1 sequence: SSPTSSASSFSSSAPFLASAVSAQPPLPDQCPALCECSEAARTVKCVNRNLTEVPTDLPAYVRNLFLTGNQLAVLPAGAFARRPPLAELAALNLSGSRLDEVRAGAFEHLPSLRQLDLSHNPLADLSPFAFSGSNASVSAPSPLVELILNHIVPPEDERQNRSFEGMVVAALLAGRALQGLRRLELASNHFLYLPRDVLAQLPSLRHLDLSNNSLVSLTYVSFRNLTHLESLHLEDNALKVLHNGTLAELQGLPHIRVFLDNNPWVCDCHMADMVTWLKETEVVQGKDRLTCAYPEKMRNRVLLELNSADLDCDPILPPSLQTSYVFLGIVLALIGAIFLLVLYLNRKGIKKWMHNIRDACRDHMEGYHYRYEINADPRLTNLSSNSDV
Protocol: Binding studies were performed by standard flow cytometry-based staining procedures two cell lines expressing 5T4:CHO-K1 cells (obtained from Alligator) transduced with human or cynomolgus macaque 5T4 and SKOV-3 human ovarian adenocarcinoma cells which express (human) 5T4. All labeling and washes were performed in U-bottom 96-well plates in saline buffer with 0.1% BSA and 2 mM EDTA. Cell were plated at approximately 100,000 cells per well and incubated with a range of 100 nM to 0.05 nM concentrations of test molecules in […], for 30 minutes on ice. Cells were washed three times then incubated for another 30 min on ice with fluorescently-labeled secondary polyclonal antibody, F(ab′)² goat anti-human IgG (Jackson ImmunoResearch Laboratories). The cells were then washed twice and the samples acquired in a BD LSRII or a Symphony A3 flow cytometer. The sample files were analyzed using FlowJo software; the mean fluorescence intensity (MFI-mean) or median fluorescence intensity (MFI-median) of the live population of cells in each well was calculated after gating on live cells (forward vs side scatter). Nonlinear regression analysis to determine EC₅₀ values was performed in GraphPad Prism 6® graphing and statistics software.

[2] = molecular target: T2, cynomolgus CD137 on cells (cynomolgus macaque, UniProt A9YYE7 24-254); test: flow cytometry, CHO-K1 cells expressing cynomolgus CD137, PE anti-human IgG Fc secondary, MFI (median)
T2 construct: whole, on cells; also called CHO-K1/cynomolgus CD137 cell line; cynomolgus monkey CD137 on CD3-stimulated primary CD8 T cells
T2 sequence (A9YYE7 entry or part of it): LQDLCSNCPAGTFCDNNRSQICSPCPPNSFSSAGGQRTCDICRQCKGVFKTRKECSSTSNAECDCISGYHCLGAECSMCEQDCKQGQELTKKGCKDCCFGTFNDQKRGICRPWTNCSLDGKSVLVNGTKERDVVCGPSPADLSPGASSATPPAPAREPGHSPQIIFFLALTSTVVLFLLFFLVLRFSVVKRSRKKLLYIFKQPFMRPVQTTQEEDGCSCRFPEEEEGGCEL
Protocol: Binding studies on CHO-K1 cells lines expressing CD137 were performed by standard flow cytometry-based staining procedures. CHO-K1 cells (generated by Alligator) were transfected with human or cynomolgus macaque CD137. A typical experiment would label approximately 100,000 cells per well, in 96-well plates, with a range of 100 nM to 0.05 nM binding molecule in 50 μL of saline buffer with 2% BSA and 2 mM EDTA, for 30 min on ice, followed by washes and incubation with PE-labeled secondary antibody, goat anti-human IgG Fcγ ([…]), for 20 minutes on ice. Signal from bound molecules was detected using a LSR-II™ or a Symphony A3 flow cytometer (BD Biosciences) and analyzed by FlowJo flow cytometry analysis software. Median fluorescence intensity (MFI-median) of bound molecules on live cells was determined after exclusion of doublets cells. Nonlinear regression analysis to determine EC₅₀ values was performed in GraphPad Prism 6® graphing and statistics software.

human 5T4 on cells [3] = molecular target: T1, human 5T4 on cells; test: flow cytometry, MDA.MB-231 cells, PE goat anti-human Fc
Protocol: (§1) A 3-fold titration of ALG.APV-210 construct (ranging from 100 nM to 0.14 nM) was incubated with the human 5T4-expressing cell lines for 40 minutes in FACS buffer at 4° C., washed 3 times, and detected with PE-labeled, goat-anti-human Fc secondary antibody (Jackson ImmunoResearch). Binding of ALG.APV-210 was detected by flow cytometry. All samples were run in duplicates. Nonlinear regression analysis to determine EC₅₀ values was performed in GraphPad Prism 6® graphing and statistics software.

human 5T4 on cells [4] = molecular target: T1, human 5T4 on cells; test: flow cytometry, TF-1 cells, PE goat anti-human Fc
Protocol: as §1

human 5T4 on cells [5] = molecular target: T1, human 5T4 on cells; test: flow cytometry, H1975 cells, PE goat anti-human Fc
Protocol: as §1

human 5T4 on cells [6] = molecular target: T1, human 5T4 on cells; test: flow cytometry, SKOV-3 cells, streptavidin-PE, normalized MFI of 2 pooled experiments
Protocol: Prior to the FACS staining, all cell lines were characterized for their 5T4 expression levels using a receptor density kit (Quantum Simply Cellular, anti-human IgG, Bangs Laboratories, Inc). Adherent cell lines were cultured according to their supplier's instructions and were harvested from their cell culture flasks using Trypsin/EDTA, counted in R10 medium in a Burker chamber, and diluted in FACS buffer (PBS+0.5% BSA, 0.05% NaN₃) to a concentration of 4×10⁶ cells/mL. 50 μL (0.20×10⁶) of cell solution was added to a 96-well FACS staining plate (Falcon #351190). Cells were incubated for 20 min in 4° C. with 50 μL of the biotinylated ALG.APV-210 (2× final concentration). The antibodies were added in a serial dilution starting at 20 μg/mL titrating down in a 12 step ½ dilution down to 0.010 μg/mL. Following 2× washing with FACS buffer, cells were incubated for 30 min in 4° C. with 100 μL of a secondary antibody (streptavidin-PE, BD #554061, diluted 1/500). […] Cells were analysed for ALG.APV-210 binding using flow cytometry (FACSVerse) by gating on single cells. MFI values (secondary antibody only subtracted) from 1 out of 2 independent experiments, as well as normalized data and EC₅₀-values of pooled data from 2 experiments were determined and plotted using GraphPad Prism 7, non-linear regression log (agonist) vs. normalized response—variable slope.

B1: ALG.APV-187 (bispecific antibody)
chain: EVQLLESGGGLVQPGGSLRLSCAASGFTFSHGSMYWVRQAPGKGLEWVSSISSGSGSTYYADSVKGRFTISHDNSKNTLYLQMNSLRAEDTAVYYCARSSYYGSYYSIDYWGQGTLVTVSSGGGGSGGGGSGGGGSGGGGSDIQMTQSPSSLSASVGDRVTITCRASQSISSYLNWYQQKPGKAPKLLIYAASSLQSGVPSRFSGSGSGTDFTLTISSLQPEDFATYYCQQYYDNLPTFGQGTKLEIKSSEPKSSDKTHTCPPCPAPEAAGAPSVFLFPPKPKDTLMISRTPEVTCVVVDVSHEDPEVKFNWYVDGVEVHNAKTKPREEQYNSTYRVVSVLTVLHQDWLNGKEYKCAVSNKALPAPIEKTISKAKGQPREPQVYTLPPSRDELTKNQVSLTCLVKGFYPSDIAVEWESNGQPENNYKTTPPVLDSDGSFFLYSKLTVDKSRWQQGNVFSCSVMHEALHNHYTQKSLSLSPGSGGGGSGGGGSGGGGSPSEVQLLESGGGLVQPGGSLRLSCAASGFTFSSYAMSWVRQAPGKCLEWVSAISGSGGSTYYADSVKGRFTISRDNSKNTLYLQMNSLRAEDTAVYYCARYYGGYYSAWMDYWGQGTLVTVSSGGGGSGGGGSGGGGSGGGGSDIQMTQSPSSLSASVGDRVTITCRASQSISSFLNWYQQKPGKAPKLLIYAASSLQSGVPSRFSGSGSGTDFTLTISSLQPEDSATYYCQQTYGYLHTFGCGTKLEIKR
notes: Optimized ADAPTIR scFv-Fc-scFv homodimer with stabilizing disulfide in the 1210 scFv
EC50 (human 5T4 on cells [1]): 5.6 nM | Maximum MFI (human 5T4 on cells [1]): 13500 | EC50 [2]: 1.7 nM

B2: ALG.APV-210 (bispecific antibody)
chain: EVQLLESGGGLVQPGGSLRLSCAASGFTFSHGSMYWVRQAPGKGLEWVSSISSGSGSTYYADSVKGRFTISHDNSKNTLYLQMNSLRAEDTAVYYCARSSYYGSYYSIDYWGQGTLVTVSSGGGGSGGGGSGGGGSGGGGSDIQMTQSPSSLSASVGDRVTITCRASQSISSYLNWYQQKPGKAPKLLIYAASSLQSGVPSRFSGSGSGTDFTLTISSLQPEDFATYYCQQYYDNLPTFGQGTKLEIKEPKSSDKTHTCPPCPAPEAAGAPSVFLFPPKPKDTLMISRTPEVTCVVVDVSHEDPEVKFNWYVDGVEVHNAKTKPREEQYNSTYRVVSVLTVLHQDWLNGKEYKCAVSNKALPAPIEKTISKAKGQPREPQVYTLPPSRDELTKNQVSLTCLVKGFYPSDIAVEWESNGQPENNYKTTPPVLDSDGSFFLYSKLTVDKSRWQQGNVFSCSVMHEALHNHYTQKSLSLSPGSGGGGSGGGGSGGGGSPSEVQLLESGGGLVQPGGSLRLSCAASGFTFSSYAMSWVRQAPGKCLEWVSAISGSGGSTYYADSVKGRFTISRDNSKNTLYLQMNSLRAEDTAVYYCARYYGGYYSAWMDYWGQGTLVTVSSGGGGSGGGGSGGGGSGGGGSDIQMTQSPSSLSASVGDRVTITCRASQSISSFLNWYQQKPGKAPKLLIYAASSLQSGVPSRFSGSGSGTDFTLTISSLQPEDSATYYCQQTYGYLHTFGCGTKLEIKR
notes: Optimized ADAPTIR scFv-Fc-scFv homodimer with stabilizing disulfide in the 1210 scFv; also called 5T4-CD137 bispecific antibody
EC50 (human 5T4 on cells [3]): 21 nM | EC50 (human 5T4 on cells [4]): 71 nM | EC50 (human 5T4 on cells [5]): 20 nM

B3: biotinylated ALG.APV-210 (bispecific antibody)
chain: B2 chain
notes: also called ALG.APV-210 (biotinylated for FACS detection)
EC50 (human 5T4 on cells [6]): 15 nM
